Source: US20240343831A1 (Regeneron, published 2024)

Assays:
[1] = molecular target: Macaca fascicularis TMPRSS2-MMH (Macaca fascicularis); assay: SPR Biacore T200, mAb captured by anti-human Fc, 25 C, HBS-P pH 7.4
[2] = molecular target: Macaca fascicularis TMPRSS2-MMH (Macaca fascicularis); assay: SPR Biacore T200, mAb captured by anti-human Fc, 37 C, dissociation in PBS-T pH 6.0
[3] = molecular target: Macaca fascicularis TMPRSS2-MMH (Macaca fascicularis); assay: SPR Biacore T200, 37 C, t½ at pH 7.4 over t½ at pH 6.0
[4] = molecular target: T1, ectodomain of human TMPRSS2-myc-myc-His (human, UniProt O15393 106-492); assay: SPR Biacore T200, mAb captured by anti-human Fc, 37 C, HBS-P pH 7.4
T1 construct: extracellular domain; also called hTMPRSS2-MMH; human TMPRSS2-MMH
Method: (§1) The equilibrium dissociation constant (KD) for TMPRSS2 binding to different TMPRSS2 monoclonal antibodies (mAbs) was determined with a real-time surface plasmon resonance biosensor using a Biacore T200 instrument. All binding studies were performed in 10 mM HEPES, 150 mM NaCl, and 0.05% v/v Surfactant Tween-20, pH 7.4 (HBS-P) running buffer at 25° C. and 37° C. […] At the end of each cycle, the TMPRSS2 mAb captured surface was regenerated using a 12 sec injection of 20 mM phosphoric acid.
(§2) The association rate (kₐ) and dissociation rate (kd) were determined by fitting the real-time binding sensorgrams to a 1:1 binding model with mass transport limitation using Scrubber 2.0c curve-fitting software. Binding dissociation equilibrium constant (KD) and dissociative half-life (t½) were calculated from the kinetic rates as:

[5] = molecular target: Macaca fascicularis TMPRSS2-MMH (Macaca fascicularis); assay: SPR Biacore T200, mAb captured by anti-human Fc, 37 C, dissociation in PBS-T pH 7.4
[6] = molecular target: T1, ectodomain of human TMPRSS2-myc-myc-His; assay: as above
Method: (§3) Dissociation rate constant (kd) for TMPRSS2 binding to purified anti-TMPRSS2 monoclonal antibody was determined using a real-time surface plasmon resonance based Biacore T200 biosensor platform. […] The CM5 Biacore sensor surface derivatized by amine coupling with an anti-human Fc specific mouse mAb was used to capture different anti-TMPRSS2 mAbs. All the TMPRSS2 reagents were expressed with a C-terminal myc-myc-hexahistidine tag (subsequently referred to as TMPRSS2-MMH).
(§4) Dissociation rate constants (kd) in two running buffers were determined by fitting the real-time binding sensorgrams to a 1:1 binding model using Scrubber 2.0c curve-fitting software.

[7] = molecular target: T1, ectodomain of human TMPRSS2-myc-myc-His; assay: SPR Biacore T200, mAb captured by anti-human Fc, 37 C, dissociation in PBS-T pH 6.0
Method: as §3, §4

[8] = molecular target: T1, ectodomain of human TMPRSS2-myc-myc-His; assay: SPR Biacore T200, mAb captured by anti-human Fc, 25 C, HBS-P pH 7.4
Method: as §1, §2

[9] = molecular target: T1, ectodomain of human TMPRSS2-myc-myc-His; assay: SPR Biacore T200, 37 C, t½ at pH 7.4 over t½ at pH 6.0
Method: as §3, §4

[10] = molecular target: Macaca fascicularis TMPRSS2-MMH (Macaca fascicularis); assay: SPR Biacore T200, mAb captured by anti-human Fc, 37 C, HBS-P pH 7.4
[11] = molecular target: T2, mouse TMPRSS2-MMH (mouse, UniProt Q9JIQ8 105-490); assay: SPR Biacore T200, mAb captured by anti-human Fc, 37 C, dissociation in PBS-T pH 6.0
T2 construct: extracellular domain; also called mTMPRSS2-MMH
Method: as §3, §4

[12] = molecular target: T2, mouse TMPRSS2-MMH; assay: SPR Biacore T200, mAb captured by anti-human Fc, 37 C, dissociation in PBS-T pH 7.4
Method: as §3, §4

[13] = molecular target: T2, mouse TMPRSS2-MMH; assay: SPR Biacore T200, mAb captured by anti-human Fc, 25 C, HBS-P pH 7.4
Method: as §1, §2

[14] = molecular target: T2, mouse TMPRSS2-MMH; assay: SPR Biacore T200, 37 C, t½ at pH 7.4 over t½ at pH 6.0
Method: as §3, §4

[15] = molecular target: T2, mouse TMPRSS2-MMH; assay: SPR Biacore T200, mAb captured by anti-human Fc, 37 C, HBS-P pH 7.4
Method: as §1, §2

T1 sequence (O15393 106-492): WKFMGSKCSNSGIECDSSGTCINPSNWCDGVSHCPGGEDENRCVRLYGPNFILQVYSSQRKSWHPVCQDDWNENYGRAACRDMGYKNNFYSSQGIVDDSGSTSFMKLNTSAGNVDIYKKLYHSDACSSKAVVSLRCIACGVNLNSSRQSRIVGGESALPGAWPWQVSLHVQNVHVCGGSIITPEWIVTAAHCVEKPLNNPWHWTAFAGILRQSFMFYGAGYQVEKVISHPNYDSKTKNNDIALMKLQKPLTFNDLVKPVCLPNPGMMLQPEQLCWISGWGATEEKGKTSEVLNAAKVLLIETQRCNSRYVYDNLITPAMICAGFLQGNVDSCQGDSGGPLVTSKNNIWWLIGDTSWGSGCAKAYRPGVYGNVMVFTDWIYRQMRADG
T2 sequence (Q9JIQ8 105-490): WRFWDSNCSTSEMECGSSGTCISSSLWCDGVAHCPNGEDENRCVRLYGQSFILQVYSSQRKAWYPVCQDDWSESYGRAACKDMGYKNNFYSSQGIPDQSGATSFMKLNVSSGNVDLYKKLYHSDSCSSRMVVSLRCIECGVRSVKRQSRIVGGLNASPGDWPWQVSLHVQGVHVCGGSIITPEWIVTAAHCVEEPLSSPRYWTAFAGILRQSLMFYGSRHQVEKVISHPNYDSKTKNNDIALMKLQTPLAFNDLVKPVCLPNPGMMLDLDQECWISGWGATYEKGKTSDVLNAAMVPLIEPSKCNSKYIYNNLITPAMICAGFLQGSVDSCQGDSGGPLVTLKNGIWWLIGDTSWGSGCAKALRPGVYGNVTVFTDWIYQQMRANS

B1: mAb8021 (antibody, human IgG4 S228P, kappa, V domains shown)
VH: QVQLVQSGAEVKKPGASVRVSCKASGYTFTNYGITWVRQAPGQGLEWMGGISVYNGNTEYAEKFQGRVSMTTDTSTTTAYLELRSLKSDDTAVYFCARGQLDYFDPWGQGTLVTVSS
VL: EIVMTQSPATLSVSPGERATLSCRASQSVRSNLAWYQQKPGQAPSLLIYGASTRATGIPARFSGSGSGTEFTLTISSLQSEDFAVYFCLQYNNWWTFGQGTKVEIKR
notes: also called anti-TMPRSS2 mAb
100 nM mfTMPRSS2-MMH Bound (RU) [1]: 63.4 RU | Kd [1]: 0.0252 nM | koff [1]: 0.000113 s⁻¹ | kon [1]: 4.48e+06 M⁻¹ s⁻¹ | t½ [1]: 102 min | 100 nm Ag Bound (RU) [2]: 70 RU | koff [2]: 0.000111 s⁻¹ | t½ [2]: 104 min | t½ Ratio (pH 7.4/pH 6.0) [3]: 0.9 | Kd [4]: 0.0627 nM | koff [4]: 0.000261 s⁻¹ | kon [4]: 4.17e+06 M⁻¹ s⁻¹ | t½ [4]: 44.2 min | 100 nm Ag Bound (RU) [5]: 71 RU | koff [5]: 0.000127 s⁻¹ | t½ [5]: 91 min | koff [6]: 0.000192 s⁻¹ | t½ [6]: 60 min | koff [7]: 0.000129 s⁻¹ | t½ [7]: 90 min | Kd [8]: 0.0299 nM | koff [8]: 9.19e-05 s⁻¹ | kon [8]: 3.08e+06 M⁻¹ s⁻¹ | t½ [8]: 126 min | t½ Ratio (pH 7.4/pH 6.0) [9]: 0.7 | 100 nM mfMPRSS2-MMH Bound (RU) [10]: 36.7 RU | Kd [10]: 0.0141 nM | koff [10]: 0.000109 s⁻¹ | kon [10]: 7.71e+06 M⁻¹ s⁻¹ | t½ [10]: 106 min

B2: mAb8029 (antibody, human IgG4 S228P, kappa, V domains shown)
VH: QLQLQESGPGLVKPSETLSLTCTVSGGSINSNSYYWGWIRQPPGKGLEWIGSIYYDRNTYYTPSLKSRVTISVDTSKNQFSLKLTSVTAADTAVYYCAREQVPGYYGMDVWGQGTTVTVSS
VL: DIQLTQSPSFLSASVGDRVTITCWASQGISRYLAWYQQKPGKTPKLLIYAASTLQSGVPSRFSGTGSGTDFTLTISNLQPEDFATYYCQQFDSYPWTFGQGTKVEIKR
notes: also called anti-TMPRSS2 mAb
100 nM mfTMPRSS2-MMH Bound (RU) [1]: 66.7 RU | Kd [1]: 0.0609 nM | koff [1]: 0.000196 s⁻¹ | kon [1]: 3.2e+06 M⁻¹ s⁻¹ | t½ [1]: 59.1 min | 100 nm Ag Bound (RU) [2]: 94 RU | koff [2]: 0.000339 s⁻¹ | t½ [2]: 34 min | t½ Ratio (pH 7.4/pH 6.0) [3]: 0.8 | Kd [4]: 0.216 nM | koff [4]: 0.000673 s⁻¹ | kon [4]: 3.12e+06 M⁻¹ s⁻¹ | t½ [4]: 17.2 min | koff [11]: 0.00257 s⁻¹ | t½ [11]: 4 min | koff [12]: 0.00246 s⁻¹ | t½ [12]: 5 min | Kd [13]: 3.33 nM | koff [13]: 0.000442 s⁻¹ | kon [13]: 133000 M⁻¹ s⁻¹ | t½ [13]: 26.2 min | t½ Ratio (pH 7.4/pH 6.0) [14]: 1 | 100 nm Ag Bound (RU) [5]: 90 RU | koff [5]: 0.000408 s⁻¹ | t½ [5]: 28 min | koff [6]: 0.000624 s⁻¹ | t½ [6]: 19 min | koff [7]: 0.000615 s⁻¹ | t½ [7]: 19 min | Kd [15]: 9.75 nM | koff [15]: 0.00209 s⁻¹ | kon [15]: 214000 M⁻¹ s⁻¹ | t½ [15]: 5.5 min | Kd [8]: 0.0592 nM | koff [8]: 0.000129 s⁻¹ | kon [8]: 2.18e+06 M⁻¹ s⁻¹ | t½ [8]: 89.5 min | t½ Ratio (pH 7.4/pH 6.0) [9]: 1 | 100 nM mfMPRSS2-MMH Bound (RU) [10]: 35.3 RU | Kd [10]: 0.0758 nM | koff [10]: 0.000392 s⁻¹ | kon [10]: 5.17e+06 M⁻¹ s⁻¹ | t½ [10]: 29.5 min
